Reference: IntAct's records for PubMed 31515488

B1: "Peptide-N(4)-(N-acetyl-beta-glucosaminyl)asparagine amidase" (Homo sapiens), Q96IV0 (parent)
chain: MAAAALGSSSGSASPAVAELCQNTPETFLEASKLLLTYADNILRNPNDEKYRSIRIGNTAFSTRLLPVRGAVECLFEMGFEEGETHLIFPKKASVEQLQKIRDLIAIERSSRLDGSNKSHKVKSSQQPAASTQLPTTPSSNPSGLNQHTRNRQGQSSDPPSASTVAADSAILEVLQSNIQHVLVYENPALQEKALACIPVQELKRKSQEKLSRARKLDKGINISDEDFLLLELLHWFKEEFFHWVNNVLCSKCGGQTRSRDRSLLPSDDELKWGAKEVEDHYCDACQFSNRFPRYNNPEKLLETRCGRCGEWANCFTLCCRAVGFEARYVWDYTDHVWTEVYSPSQQRWLHCDACEDVCDKPLLYEIGWGKKLSYVIAFSKDEVVDVTWRYSCKHEEVIARRTKVKEALLRDTINGLNKQRQLFLSENRRKELLQRIIVELVEFISPKTPKPGELGGRISGSVAWRVARGEMGLQRKETLFIPCENEKISKQLHLCYNIVKDRYVRVSNNNQTISGWENGVWKMESIFRKVETDWHMVYLARKEGSSFAYISWKFECGSVGLKVDSISIRTSSQTFQTGTVEWKLRSDTAQVELTGDNSLHSYADFSGATEVILEAELSRGDGDVAWQHTQLFRQSLNDHEENCLEIIIKFSDL
B2: 3-hydroxyanthranilate 3,4-dioxygenase (Homo sapiens), P46952 (parent)
chain: MERRLGVRAWVKENRGSFQPPVCNKLMHQEQLKVMFIGGPNTRKDYHIEEGEEVFYQLEGDMVLRVLEQGKHRDVVIRQGEIFLLPARVPHSPQRFANTVGLVVERRRLETELDGLRYYVGDTMDVLFEKWFYCKDLGTQLAPIIQEFFSSEQYRTGKPIPDQLLKEPPFPLSTRSIMEPMSLDAWLDSHHRELQAGTPLSLFGDTYETQVIAYGQGSSEGLRQNVDVWLWQLEGSSVVTMGGRRLSLAPDDSLLVLAGTSYAWERTQGSVALSVTQDPACKKPLG
partner: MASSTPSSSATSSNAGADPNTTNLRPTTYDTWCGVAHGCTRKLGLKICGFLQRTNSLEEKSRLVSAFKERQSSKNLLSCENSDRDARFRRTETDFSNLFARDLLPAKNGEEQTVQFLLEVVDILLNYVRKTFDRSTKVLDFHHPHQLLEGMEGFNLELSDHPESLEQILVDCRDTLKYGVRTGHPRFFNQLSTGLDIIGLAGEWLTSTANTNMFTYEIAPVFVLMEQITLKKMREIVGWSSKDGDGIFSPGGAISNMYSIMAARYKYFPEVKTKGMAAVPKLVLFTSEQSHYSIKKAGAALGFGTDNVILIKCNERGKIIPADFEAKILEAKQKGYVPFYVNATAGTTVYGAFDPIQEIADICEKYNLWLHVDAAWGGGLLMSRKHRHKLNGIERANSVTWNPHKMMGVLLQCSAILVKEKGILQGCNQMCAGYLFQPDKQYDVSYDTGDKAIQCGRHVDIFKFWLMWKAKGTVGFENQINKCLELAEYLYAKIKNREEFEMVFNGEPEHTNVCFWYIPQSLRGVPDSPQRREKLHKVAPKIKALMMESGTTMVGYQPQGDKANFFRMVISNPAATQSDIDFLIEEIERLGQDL
B3: Pleckstrin homology domain-containing family G member 6 (Homo sapiens), Q3KR16 (parent)
chain: MKAFGPPHEGPLQGLVASRIETYGGRHRASAQSTAGRLYPRGYPVLDPSRRRLQQYVPFARGSGQARGLSPMRLRDPEPEKRHGGHVGAGLLHSPKLKELTKAHELEVRLHTFSMFGMPRLPPEDRRHWEIGEGGDSGLTIEKSWRELVPGHKEMSQELCHQQEALWELLTTELIYVRKLKIMTDLLAAGLLNLQRVGLLMEVSAETLFGNVPSLIRTHRSFWDEVLGPTLEETRASGQPLDPIGLQSGFLTFGQRFHPYVQYCLRVKQTMAYAREQQETNPLFHAFVQWCEKHKRSGRQMLCDLLIKPHQRITKYPLLLHAVLKRSPEARAQEALNAMIEAVESFLRHINGQVRQGEEQESLAAAAQRIGPYEVLEPPSDEVEKNLRPFSTLDLTSPMLGVASEHTRQLLLEGPVRVKEGREGKLDVYLFLFSDVLLVTKPQRKADKAKVIRPPLMLEKLVCQPLRDPNSFLLIHLTEFQCVSSALLVHCPSPTDRAQWLEKTQQAQAALQKLKAEEYVQQKRELLTLYRDQDRESPSTRPSTPSLEGSQSSAEGRTPEFSTIIPHLVVTEDTDEDAPLVPDDTSDSGYGTLIPGTPTGSRSPLSRLRQRALRRDPRLTFSTLELRDIPLRPHPPDPQAPQRRSAPELPEGILKGGSLPQEDPPTWSEEEDGASERGNVVVETLHRARLRGQLPSSPTHADSAGESPWESSGEEEEEGPLFLKAGHTSLRPMRAEDMLREIREELASQRIEGAEEPRDSRPRKLTRAQLQRMRGPHIIQLDTPLSASEV
partner: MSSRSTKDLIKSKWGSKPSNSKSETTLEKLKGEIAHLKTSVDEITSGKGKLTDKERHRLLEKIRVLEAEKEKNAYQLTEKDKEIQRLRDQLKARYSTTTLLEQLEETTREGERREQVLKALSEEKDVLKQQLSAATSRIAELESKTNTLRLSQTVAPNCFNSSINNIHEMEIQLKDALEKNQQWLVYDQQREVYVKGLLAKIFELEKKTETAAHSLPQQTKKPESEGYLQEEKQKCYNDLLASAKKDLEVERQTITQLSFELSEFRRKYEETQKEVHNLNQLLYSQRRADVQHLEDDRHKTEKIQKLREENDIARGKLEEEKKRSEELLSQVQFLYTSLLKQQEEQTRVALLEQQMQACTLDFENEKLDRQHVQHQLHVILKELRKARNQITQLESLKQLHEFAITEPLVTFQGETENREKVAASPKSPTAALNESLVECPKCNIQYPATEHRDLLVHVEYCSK
B4: E3 ubiquitin-protein ligase TRIM32 (Homo sapiens), Q13049 (parent)
chain: MAAAAASHLNLDALREVLECPICMESFTEEQLRPKLLHCGHTICRQCLEKLLASSINGVRCPFCSKITRITSLTQLTDNLTVLKIIDTAGLSEAVGLLMCRSCGRRLPRQFCRSCGLVLCEPCREADHQPPGHCTLPVKEAAEERRRDFGEKLTRLRELMGELQRRKAALEGVSKDLQARYKAVLQEYGHEERRVQDELARSRKFFTGSLAEVEKSNSQVVEEQSYLLNIAEVQAVSRCDYFLAKIKQADVALLEETADEEEPELTASLPRELTLQDVELLKVGHVGPLQIGQAVKKPRTVNVEDSWAMEATASAASTSVTFREMDMSPEEVVASPRASPAKQRGPEAASNIQQCLFLKKMGAKGSTPGMFNLPVSLYVTSQGEVLVADRGNYRIQVFTRKGFLKEIRRSPSGIDSFVLSFLGADLPNLTPLSVAMNCQGLIGVTDSYDNSLKVYTLDGHCVACHRSQLSKPWGITALPSGQFVVTDVEGGKLWCFTVDRGSGVVKYSCLCSAVRPKFVTCDAEGTVYFTQGLGLNLENRQNEHHLEGGFSIGSVGPDGQLGRQISHFFSENEDFRCIAGMCVDARGDLIVADSSRKEILHFPKGGGYSVLIREGLTCPVGIALTPKGQLLVLDCWDHCIKIYSYHLRRYSTP
B5: TBC1 domain family member 7 (Homo sapiens), Q9P0N9 (parent)
chain: MTEDSQRNFRSVYYEKVGFRGVEEKKSLEILLKDDRLDTEKLCTFSQRFPLPSMYRALVWKVLLGILPPHHESHAKVMMYRKEQYLDVLHALKVVRFVSDATPQAEVYLRMYQLESGKLPRSPSFPLEPDDEVFLAIAKAMEEMVEDSVDCYWITRRFVNQLNTKYRDSLPQLPKAFEQYLNLEDGRLLTHLRMCSAAPKLPYDLWFKRCFAGCLPESSLQRVWDKVVSGSCKILVFVAVEILLTFKIKVMALNSAEKITKFLENIPQDSSDAIVSKAIDLWHKHCGTPVHSS
partner: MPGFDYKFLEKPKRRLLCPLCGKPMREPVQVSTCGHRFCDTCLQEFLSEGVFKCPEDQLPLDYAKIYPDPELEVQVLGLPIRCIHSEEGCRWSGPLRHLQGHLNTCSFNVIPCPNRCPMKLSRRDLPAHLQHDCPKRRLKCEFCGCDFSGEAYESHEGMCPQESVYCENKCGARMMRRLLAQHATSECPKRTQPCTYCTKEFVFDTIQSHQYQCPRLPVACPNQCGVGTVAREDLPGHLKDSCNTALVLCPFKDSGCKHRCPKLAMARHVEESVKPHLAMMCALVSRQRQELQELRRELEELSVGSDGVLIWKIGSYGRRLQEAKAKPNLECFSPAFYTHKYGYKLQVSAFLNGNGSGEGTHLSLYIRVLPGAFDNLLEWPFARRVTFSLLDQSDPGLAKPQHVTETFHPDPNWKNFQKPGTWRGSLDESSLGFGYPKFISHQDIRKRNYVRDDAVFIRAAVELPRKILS
B6: Caspase-2 (Homo sapiens), P42575 (parent)
chain: MAAPSAGSWSTFQHKELMAADRGRRILGVCGMHPHHQETLKKNRVVLAKQLLLSELLEHLLEKDIITLEMRELIQAKVGSFSQNVELLNLLPKRGPQAFDAFCEALRETKQGHLEDMLLTTLSGLQHVLPPLSCDYDLSLPFPVCESCPLYKKLRLSTDTVEHSLDNKDGPVCLQVKPCTPEFYQTHFQLAYRLQSRPRGLALVLSNVHFTGEKELEFRSGGDVDHSTLVTLFKLLGYDVHVLCDQTAQEMQEKLQNFAQLPAHRVTDSCIVALLSHGVEGAIYGVDGKLLQLQEVFQLFDNANCPSLQNKPKMFFIQACRGDETDRGVDQQDGKNHAGSPGCEESDAGKEKLPKMRLPTRSDMICGYACLKGTAAMRNTKRGSWYIEALAQVFSERACDMHVADMLVKVNALIKDREGYAPGTEFHRCKEMSEYCSTLCRHLYLFPGHPPT

Variants of: B1
Conditions: with ubql1_human UBQLN1, Q9UMX0
Chain of ubql1_human UBQLN1, Q9UMX0 (Q9UMX0 whole entry): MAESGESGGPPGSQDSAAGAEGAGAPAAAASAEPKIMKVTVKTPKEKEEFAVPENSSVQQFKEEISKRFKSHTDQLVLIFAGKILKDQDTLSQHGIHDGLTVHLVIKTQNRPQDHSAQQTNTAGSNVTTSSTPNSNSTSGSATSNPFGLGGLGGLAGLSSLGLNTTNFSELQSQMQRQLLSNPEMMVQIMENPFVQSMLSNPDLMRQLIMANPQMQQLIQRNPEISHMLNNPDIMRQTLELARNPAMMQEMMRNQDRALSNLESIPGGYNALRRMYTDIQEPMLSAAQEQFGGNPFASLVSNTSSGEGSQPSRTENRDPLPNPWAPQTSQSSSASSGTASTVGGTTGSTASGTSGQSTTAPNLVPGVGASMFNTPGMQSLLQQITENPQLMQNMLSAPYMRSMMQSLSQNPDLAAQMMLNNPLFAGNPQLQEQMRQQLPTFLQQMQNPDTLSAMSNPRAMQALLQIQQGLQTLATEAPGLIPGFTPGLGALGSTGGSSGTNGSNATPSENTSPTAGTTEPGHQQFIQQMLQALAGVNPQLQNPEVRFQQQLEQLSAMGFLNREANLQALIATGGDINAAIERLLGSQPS

effect of a mutation on the interaction | Variant
with no effect | F292L

Variants of: B1
Conditions: with trad1_human TRAFD1, O14545
Chain of trad1_human TRAFD1, O14545 (O14545 whole entry): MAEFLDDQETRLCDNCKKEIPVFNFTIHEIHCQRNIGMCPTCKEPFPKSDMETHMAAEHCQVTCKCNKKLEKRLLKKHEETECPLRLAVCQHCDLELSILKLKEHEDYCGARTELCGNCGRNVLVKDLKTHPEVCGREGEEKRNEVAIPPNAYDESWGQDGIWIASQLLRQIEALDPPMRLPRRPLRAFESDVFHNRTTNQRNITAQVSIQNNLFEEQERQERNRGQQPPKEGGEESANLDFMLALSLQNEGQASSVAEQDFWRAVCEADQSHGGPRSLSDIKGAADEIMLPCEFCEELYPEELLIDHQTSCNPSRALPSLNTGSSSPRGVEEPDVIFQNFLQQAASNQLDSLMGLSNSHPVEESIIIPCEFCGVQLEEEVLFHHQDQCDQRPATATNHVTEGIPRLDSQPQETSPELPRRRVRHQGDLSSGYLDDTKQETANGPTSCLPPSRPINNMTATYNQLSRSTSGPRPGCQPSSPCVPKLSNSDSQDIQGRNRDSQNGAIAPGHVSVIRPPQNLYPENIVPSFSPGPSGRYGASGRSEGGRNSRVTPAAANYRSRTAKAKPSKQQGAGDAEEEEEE

effect of a mutation on the interaction | Variant
with no effect | F292L

Variants of: B2
Conditions: with dce1_human GAD1, Q99259

effect of a mutation on the interaction | Variant
with no effect | T42S
with no effect | I37V

Variants of: B3
Conditions: with cep55_human CEP55, Q53EZ4

effect of a mutation on the interaction | Variant
with no effect | R627W
with no effect | P542S
with no effect | R763Q

Variants of: B4
Conditions: with abi2_human ABI2, Q9NYB9
Chain of abi2_human ABI2, Q9NYB9 (Q9NYB9 whole entry): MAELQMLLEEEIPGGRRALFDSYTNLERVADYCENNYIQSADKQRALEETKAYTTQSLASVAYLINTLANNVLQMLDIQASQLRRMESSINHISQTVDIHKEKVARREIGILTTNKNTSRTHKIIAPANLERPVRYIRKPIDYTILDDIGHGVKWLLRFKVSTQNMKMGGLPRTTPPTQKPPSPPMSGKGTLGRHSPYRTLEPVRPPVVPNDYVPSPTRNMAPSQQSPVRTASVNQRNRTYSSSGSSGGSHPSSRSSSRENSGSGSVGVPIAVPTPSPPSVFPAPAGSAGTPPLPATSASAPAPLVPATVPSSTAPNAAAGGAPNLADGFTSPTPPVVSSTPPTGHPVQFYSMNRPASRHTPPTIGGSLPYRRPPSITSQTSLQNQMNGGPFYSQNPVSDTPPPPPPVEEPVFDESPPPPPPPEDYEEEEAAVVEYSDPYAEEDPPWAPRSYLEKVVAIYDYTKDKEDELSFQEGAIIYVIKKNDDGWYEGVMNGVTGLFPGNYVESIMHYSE

effect of a mutation on the interaction | Variant
disrupting interaction strength | E547A

Variants of: B4
Conditions: with pde9a_human PDE9A

effect of a mutation on the interaction | Variant
disrupting interaction strength | E547A

Variants of: B4
Conditions: with sdcb1_human SDCBP

effect of a mutation on the interaction | Variant
disrupting interaction strength | E547A

Variants of: B5
Conditions: with traf4_human TRAF4, Q9BUZ4

effect of a mutation on the interaction | Variant
with no effect | L67W

Variants of: B6
Conditions: with cradd_human CRADD

effect of a mutation on the interaction | Variant
with no effect | G349S
